Columns and labels:
Rpt2 = Rpt2 (S. cerevisiae, UniProt P40327 1-437); assay: cryo-EM structure
Rpn1 = target: T1, Rpn1 (S. cerevisiae, UniProt P38764 1-993); assay: cryo-EM structure
T1 sequence: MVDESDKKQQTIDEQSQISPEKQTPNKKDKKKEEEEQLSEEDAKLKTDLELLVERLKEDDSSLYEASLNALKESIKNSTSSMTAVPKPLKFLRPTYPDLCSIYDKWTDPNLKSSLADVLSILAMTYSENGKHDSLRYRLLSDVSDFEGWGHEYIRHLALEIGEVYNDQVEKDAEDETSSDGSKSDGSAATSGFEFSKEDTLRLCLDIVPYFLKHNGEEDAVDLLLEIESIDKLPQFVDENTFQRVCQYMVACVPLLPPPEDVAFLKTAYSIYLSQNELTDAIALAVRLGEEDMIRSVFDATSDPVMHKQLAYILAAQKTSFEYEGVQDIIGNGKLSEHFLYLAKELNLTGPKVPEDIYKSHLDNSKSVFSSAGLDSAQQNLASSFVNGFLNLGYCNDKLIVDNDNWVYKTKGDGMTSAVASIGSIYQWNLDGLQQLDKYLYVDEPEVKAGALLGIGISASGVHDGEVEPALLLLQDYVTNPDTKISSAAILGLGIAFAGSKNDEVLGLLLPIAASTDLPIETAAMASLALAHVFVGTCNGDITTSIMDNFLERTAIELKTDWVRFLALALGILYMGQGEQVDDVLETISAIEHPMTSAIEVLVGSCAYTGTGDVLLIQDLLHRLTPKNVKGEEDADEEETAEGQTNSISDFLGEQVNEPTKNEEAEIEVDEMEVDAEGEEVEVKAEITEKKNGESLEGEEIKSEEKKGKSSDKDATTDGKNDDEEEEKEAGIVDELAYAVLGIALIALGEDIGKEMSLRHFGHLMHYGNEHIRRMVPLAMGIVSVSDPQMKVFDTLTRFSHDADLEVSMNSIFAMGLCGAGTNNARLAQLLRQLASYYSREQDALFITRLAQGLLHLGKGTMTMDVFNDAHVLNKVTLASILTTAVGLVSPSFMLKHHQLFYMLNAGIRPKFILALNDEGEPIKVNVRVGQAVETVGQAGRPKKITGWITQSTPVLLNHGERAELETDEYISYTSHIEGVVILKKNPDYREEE

Sequence of Rpt2 (P40327 whole entry): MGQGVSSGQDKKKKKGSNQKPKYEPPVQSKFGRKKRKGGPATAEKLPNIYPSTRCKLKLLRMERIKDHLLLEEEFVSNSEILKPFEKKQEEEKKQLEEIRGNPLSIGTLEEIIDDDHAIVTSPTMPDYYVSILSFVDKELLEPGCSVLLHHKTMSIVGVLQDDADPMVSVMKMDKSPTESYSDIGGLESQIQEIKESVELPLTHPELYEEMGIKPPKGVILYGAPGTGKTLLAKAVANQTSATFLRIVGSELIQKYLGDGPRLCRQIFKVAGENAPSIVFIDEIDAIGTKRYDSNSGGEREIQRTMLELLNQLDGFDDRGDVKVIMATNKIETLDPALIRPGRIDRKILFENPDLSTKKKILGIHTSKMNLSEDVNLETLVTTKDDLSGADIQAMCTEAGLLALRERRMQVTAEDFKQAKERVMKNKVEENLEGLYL

B1: 20S core subunit α4 (natural protein)
chain: MSGYDRALSIFSPDGHIFQVEYALEAVKRGTCAVGVKGKNCVVLGCERRSTLKLQDTRITPSKVSKIDSHVVLSFSGLNADSRILIEKARVEAQSHRLTLEDPVTVEYLTRYVAGVQQRYTQSGGVRPFGVSTLIAGFDPRDDEPKLYQTEPSGIYSSWSAQTIGRNSKTVREFLEKNYDRKEPPATVEECVKLTVRSLLEVVQTGAKNIEITVVKPDSDIVALSSEEINQYVTQIEQEKQEQQEQDKKKKSNH
B1: binds (Rpt2); binds (Rpn1).

Reference: publication PMC3285539 (Nature, 2012)
